From publication PMC8274477 (Frontiers in Cell and Developmental Biology, 2021) come the findings set out here.

In this experiment the target is T1, OTULIN (OTU deubiquitinase with linear linkage specificity, FAM105B), His-tagged, biotin-labelled (human, UniProt Q96BN8 1-352, biotin (label; sites not stated)).
T1 construct: OTULIN (FAM105B), cDNA in pET28a; also called HIS-OTULIN; source: E. coli BL21 (DE3), purified (His-tag Purification Resin), labelled with biotin; not shown: His6, N-terminal, kept
Description: peptide or protein array; HuProt human proteome microarray; 5 ug/5 ml biotin-labelled LUBAC or OTULIN in solution, 1 h at room temperature; Cy5-streptavidin, scanned at 635 nm; BSA as negative control; hits: Z-score >= 3 and I_(Mean_Ratio) >= 1.4. Particulars: both partners purified.

B1: RAB5A (natural protein, human, UniProt P20339 1-215, looked up)
chain: MASRGATRPNGPNTGNKICQFKLVLLGESAVGKSSLVLRFVKGQFHEFQESTIGAAFLTQTVCLDDTTVKFEIWDTAGQERYHSLAPMYYRGAQAAIVVYDITNEESFARAKNWVKELQRQASPNIVIALSGNKADLANKRAVDFQEAQSYADDNSLLFMETSAKTSMNVNEIFMAIAKKLPKNEPQNPGANSARGRGVDLTEPTQPTRNQCCSN
notes: RAB5A; protein on the human proteome microarray; source: spotted on the HuProt human proteome microarray
For B1, the binding result is “binds”.

B2: RAB2B (natural protein, human, UniProt Q8WUD1 1-216, looked up)
chain: MTYAYLFKYIIIGDTGVGKSCLLLQFTDKRFQPVHDLTIGVEFGARMVNIDGKQIKLQIWDTAGQESFRSITRSYYRGAAGALLVYDITRRETFNHLTSWLEDARQHSSSNMVIMLIGNKSDLESRRDVKREEGEAFAREHGLIFMETSAKTACNVEEAFINTAKEIYRKIQQGLFDVHNEANGIKIGPQQSISTSVGPSASQRNSRDIGSNSGCC
notes: RAB2B; protein on the human proteome microarray; source: spotted on the HuProt human proteome microarray
For the molecule B2, the binding result is recorded as “binds”.

B3: TST (natural protein, human, UniProt Q16762 1-297, looked up)
chain: MVHQVLYRALVSTKWLAESIRTGKLGPGLRVLDASWYSPGTREARKEYLERHVPGASFFDIEECRDTASPYEMMLPSEAGFAEYVGRLGISNHTHVVVYDGEHLGSFYAPRVWWMFRVFGHRTVSVLNGGFRNWLKEGHPVTSEPSRPEPAVFKATLDRSLLKTYEQVLENLESKRFQLVDSRSQGRFLGTEPEPDAVGLDSGHIRGAVNMPFMDFLTEDGFEKGPEELRALFQTKKVDLSQPLIATCRKGVTACHVALAAYLCGKPDVAVYDGSWSEWFRRAPPESRVSQGKSEKA
notes: TST; protein on the human proteome microarray; source: spotted on the HuProt human proteome microarray
For B3, the binding result is “binds”.

B4: AKR1D1 (natural protein, human, UniProt P51857 1-326, looked up)
chain: MDLSAASHRIPLSDGNSIPIIGLGTYSEPKSTPKGACATSVKVAIDTGYRHIDGAYIYQNEHEVGEAIREKIAEGKVRREDIFYCGKLWATNHVPEMVRPTLERTLRVLQLDYVDLYIIEVPMAFKPGDEIYPRDENGKWLYHKSNLCATWEAMEACKDAGLVKSLGVSNFNRRQLELILNKPGLKHKPVSNQVECHPYFTQPKLLKFCQQHDIVITAYSPLGTSRNPIWVNVSSPPLLKDALLNSLGKRYNKTAAQIVLRFNIQRGVVVIPKSFNLERIKENFQIFDFSLTEEEMKDIEALNKNVRFVELLMWRDHPEYPFHDEY
notes: AKR1D1; protein on the human proteome microarray; source: spotted on the HuProt human proteome microarray
Regarding B4, the binding result is listed as “binds”.

B5: AKR1C3 (natural protein, human, UniProt P42330 1-323, looked up)
chain: MDSKHQCVKLNDGHFMPVLGFGTYAPPEVPRSKALEVTKLAIEAGFRHIDSAHLYNNEEQVGLAIRSKIADGSVKREDIFYTSKLWSTFHRPELVRPALENSLKKAQLDYVDLYLIHSPMSLKPGEELSPTDENGKVIFDIVDLCTTWEAMEKCKDAGLAKSIGVSNFNRRQLEMILNKPGLKYKPVCNQVECHPYFNRSKLLDFCKSKDIVLVAYSALGSQRDKRWVDPNSPVLLEDPVLCALAKKHKRTPALIALRYQLQRGVVVLAKSYNEQRIRQNVQVFEFQLTAEDMKAIDGLDRNLHYFNSDSFASHPNYPYSDEY
notes: AKR1C3; protein on the human proteome microarray; source: spotted on the HuProt human proteome microarray
For B5, the binding result is recorded as “binds”.

B6: TMEM116 (natural protein, human, UniProt Q8NCL8 1-245, looked up)
chain: MKHTQSGQSTSPLVIDYTCRVCQMAFVFSSLIPLLLMTPVFCLGNTSECFQNFSQSHKCILMHSPPSAMAELPPSANTSVCSTLYFYGIAIFLGSFVLSLLTIMVLLIRAQTLYKKFVKSTGFLGSEQWAVIHIVDQRVRFYPVAFFCCWGPAVILMIIKLTKPQDTKLHMALYVLQALTATSQGLLNCGVYGWTQHKFHQLKQEARRDADTQTPLLCSQKRFYSRGLNSLESTLTFPASTSTIF
notes: TMEM116; protein on the human proteome microarray; source: spotted on the HuProt human proteome microarray
For the molecule B6, the binding result is “binds”.

B7: RPP25 (natural protein, human, UniProt Q9BUL9 1-199, looked up)
chain: MENFRKVRSEEAPAGCGAEGGGPGSGPFADLAPGAVHMRVKEGSKIRNLMAFATASMAQPATRAIVFSGCGRATTKTVTCAEILKRRLAGLHQVTRLRYRSVREVWQSLPPGPTQGQTPGEPAASLSVLKNVPGLAILLSKDALDPRQPGYQPPNPHPGPSSPPAAPASKRSLGEPAAGEGSAKRSQPEPGVADEDQTA
notes: RPP25; protein on the human proteome microarray; source: spotted on the HuProt human proteome microarray
In the case of B7, the binding result is on record as “binds”.

B8: TK1 (natural protein, human, UniProt P04183 1-234, looked up)
chain: MSCINLPTVLPGSPSKTRGQIQVILGPMFSGKSTELMRRVRRFQIAQYKCLVIKYAKDTRYSSSFCTHDRNTMEALPACLLRDVAQEALGVAVIGIDEGQFFPDIVEFCEAMANAGKTVIVAALDGTFQRKPFGAILNLVPLAESVVKLTAVCMECFREAAYTKRLGTEKEVEVIGGADKYHSVCRLCYFKKASGQPAGPDNKENCPVPGKPGEAVAARKLFAPQQILQCSPAN
notes: TK1; protein on the human proteome microarray; source: spotted on the HuProt human proteome microarray
Consider B8, for which the binding result is given as “binds”.

B9: SULT1C2 (natural protein, human, UniProt O00338 1-296, looked up)
chain: MALTSDLGKQIKLKEVEGTLLQPATVDNWSQIQSFEAKPDDLLICTYPKAGTTWIQEIVDMIEQNGDVEKCQRAIIQHRHPFIEWARPPQPSGVEKAKAMPSPRILKTHLSTQLLPPSFWENNCKFLYVARNAKDCMVSYYHFQRMNHMLPDPGTWEEYFETFINGKVVWGSWFDHVKGWWEMKDRHQILFLFYEDIKRDPKHEIRKVMQFMGKKVDETVLDKIVQETSFEKMKENPMTNRSTVSKSILDQSISSFMRKGTVGDWKNHFTVAQNERFDEIYRRKMEGTSINFCMEL
notes: SULT1C2; protein on the human proteome microarray; source: spotted on the HuProt human proteome microarray
On to B9, for which the binding result was “binds”.

B10: RBM3 (natural protein, human, UniProt P98179 1-157, looked up)
chain: MSSEEGKLFVGGLNFNTDEQALEDHFSSFGPISEVVVVKDRETQRSRGFGFITFTNPEHASVAMRAMNGESLDGRQIRVDHAGKSARGTRGGGFGAHGRGRSYSRGGGDQGYGSGRYYDSRPGGYGYGYGRSRDYNGRNQGGYDRYSGGNYRDNYDN
notes: RBM3; protein on the human proteome microarray; source: spotted on the HuProt human proteome microarray
In the case of B10, the binding result was “binds”.

B11: SPRR4 (natural protein, human, UniProt Q96PI1 1-79, looked up)
chain: MSSQQQQRQQQQCPPQRAQQQQVKQPCQPPPVKCQETCAPKTKDPCAPQVKKQCPPKGTIIPAQQKCPSAQQASKSKQK
notes: SPRR4; protein on the human proteome microarray; source: spotted on the HuProt human proteome microarray
Turning to B11, the binding result was “binds”.

B12: SLC25A16 (natural protein, human, UniProt P16260 1-332, looked up)
chain: MAAATAAAALAAADPPPAMPQAAGAGGPTTRRDFYWLRSFLAGGIAGCCAKTTVAPLDRVKVLLQAHNHHYKHLGVFSALRAVPQKEGFLGLYKGNGAMMIRIFPYGAIQFMAFEHYKTLITTKLGISGHVHRLMAGSMAGMTAVICTYPLDMVRVRLAFQVKGEHSYTGIIHAFKTIYAKEGGFFGFYRGLMPTILGMAPYAGVSFFTFGTLKSVGLSHAPTLLGRPSSDNPNVLVLKTHVNLLCGGVAGAIAQTISYPFDVTRRRMQLGTVLPEFEKCLTMRDTMKYVYGHHGIRKGLYRGLSLNYIRCIPSQAVAFTTYELMKQFFHLN
notes: SLC25A16; protein on the human proteome microarray; source: spotted on the HuProt human proteome microarray
Take B12: the binding result is listed as “binds”.

B13: SULT1B1 (natural protein)
chain: not shown
notes: SULT1B1; protein on the human proteome microarray; source: spotted on the HuProt human proteome microarray
As to B13, the binding result was “binds”.

B14: RALY (natural protein, human, UniProt Q9UKM9 1-306, looked up)
chain: MSLKLQASNVTNKNDPKSINSRVFIGNLNTALVKKSDVETIFSKYGRVAGCSVHKGYAFVQYSNERHARAAVLGENGRVLAGQTLDINMAGEPKPDRPKGLKRAASAIYSGYIFDYDYYRDDFYDRLFDYRGRLSPVPVPRAVPVKRPRVTVPLVRRVKTNVPVKLFARSTAVTTSSAKIKLKSSELQAIKTELTQIKSNIDALLSRLEQIAAEQKANPDGKKKGDGGGAGGGGGGGGSGGGGSGGGGGGGSSRPPAPQENTTSEAGLPQGEARTRDDGDEEGLLTHSEEELEHSQDTDADDGALQ
notes: RALY; protein on the human proteome microarray; source: spotted on the HuProt human proteome microarray
For B14, the binding result is reported as “binds”.

B15: TAF9B (natural protein, human, UniProt Q9HBM6 1-251, looked up)
chain: MESGKMAPPKNAPRDALVMAQILKDMGITEYEPRVINQMLEFAFRYVTTILDDAKIYSSHAKKPNVDADDVRLAIQCRADQSFTSPPPRDFLLDIARQKNQTPLPLIKPYAGPRLPPDRYCLTAPNYRLKSLIKKGPNQGRLVPRLSVGAVSSKPTTPTIATPQTVSVPNKVATPMSVTSQRFTVQIPPSQSTPVKPVPATTAVQNVLINPSMIGPKNILITTNMVSSQNTANEANPLKRKHEDDDDNDIM
notes: TAF9B; protein on the human proteome microarray; source: spotted on the HuProt human proteome microarray
B15: the binding result is “binds”.

B16: QKI (natural protein, human, UniProt Q96PU8 1-341, looked up)
chain: MVGEMETKEKPKPTPDYLMQLMNDKKLMSSLPNFCGIFNHLERLLDEEISRVRKDMYNDTLNGSTEKRSAELPDAVGPIVQLQEKLYVPVKEYPDFNFVGRILGPRGLTAKQLEAETGCKIMVRGKGSMRDKKKEEQNRGKPNWEHLNEDLHVLITVEDAQNRAEIKLKRAVEEVKKLLVPAAEGEDSLKKMQLMELAILNGTYRDANIKSPALAFSLAATAQAAPRIITGPAPVLPPAALRTPTPAGPTIMPLIRQIQTAVMPNGTPHPTAAIVPPGPEAGLIYTPYEYPYTLAPATSILEYPIEPSGVLGAVATKVRRHDMRVHPYQRIVTADRAATGN
notes: QKI; protein on the human proteome microarray; source: spotted on the HuProt human proteome microarray
For B16, the binding result is “binds”.

B17: SRA1 (natural protein, human, UniProt Q9HD15 1-224, looked up)
chain: MAELYVKPGNKERGWNDPPQFSYGLQTQAGGPRRSLLTKRVAAPQDGSPRVPASETSPGPPPMGPPPPSSKAPRSPPVGSGPASGVEPTSFPVESEAVMEDVLRPLEQALEDCRGHTRKQVCDDISRRLALLQEQWAGGKLSIPVKKRMALLVQELSSHRWDAADDIHRSLMVDHVTEVSQWMVGVKRLIAEKRSLFSEEAANEEKSAATAEKNHTIPGFQQAS
notes: SRA1; protein on the human proteome microarray; source: spotted on the HuProt human proteome microarray
Turning to B17, the binding result was “binds”.

B18: SDS (natural protein, human, UniProt P20132 1-328, looked up)
chain: MMSGEPLHVKTPIRDSMALSKMAGTSVYLKMDSAQPSGSFKIRGIGHFCKRWAKQGCAHFVCSSAGNAGMAAAYAARQLGVPATIVVPSTTPALTIERLKNEGATVKVVGELLDEAFELAKALAKNNPGWVYIPPFDDPLIWEGHASIVKELKETLWEKPGAIALSVGGGGLLCGVVQGLQEVGWGDVPVIAMETFGAHSFHAATTAGKLVSLPKITSVAKALGVKTVGAQALKLFQEHPIFSEVISDQEAVAAIEKFVDDEKILVEPACGAALAAVYSHVIQKLQLEGNLRTPLPSLVVIVCGGSNISLAQLRALKEQLGMTNRLPK
notes: SDS; protein on the human proteome microarray; source: spotted on the HuProt human proteome microarray
For B18, the binding result was “binds”.

B19: RAB5C (natural protein, human, UniProt P51148 1-216, looked up)
chain: MAGRGGAARPNGPAAGNKICQFKLVLLGESAVGKSSLVLRFVKGQFHEYQESTIGAAFLTQTVCLDDTTVKFEIWDTAGQERYHSLAPMYYRGAQAAIVVYDITNTDTFARAKNWVKELQRQASPNIVIALAGNKADLASKRAVEFQEAQAYADDNSLLFMETSAKTAMNVNEIFMAIAKKLPKNEPQNATGAPGRNRGVDLQENNPASRSQCCSN
notes: RAB5C; protein on the human proteome microarray; source: spotted on the HuProt human proteome microarray
Take B19: the binding result is “binds”.

B20: SRXN1 (natural protein)
chain: not shown
notes: SRXN1; protein on the human proteome microarray; source: spotted on the HuProt human proteome microarray
B20: the binding result is “binds”.
